# In IntAct's records for PubMed 17986458:
# Target: VHL, P40337-3
row,Substance,effect of a mutation on the interaction
1,"Diacylglycerol kinase iota (Homo sapiens), O75912 P147A;P895A",disrupting interaction
2,"Diacylglycerol kinase iota (Homo sapiens), O75912 P895A",disrupting interaction
